Laboratory results published in paper PMC4621513.

Molecular target: APOBEC3G (A3G) (UniProt Q9HC16)
Test: AFM imaging
Conditions: protein:DNA 2:1, Force spectroscopy probing buffer: 50 mM HEPES, 100 mM NaCl, 5 mM MgCl2, 1 mM DTT (pH and temperature not given), imaging buffer not in the material

Sequence of APOBEC3G (A3G) (Q9HC16 whole entry): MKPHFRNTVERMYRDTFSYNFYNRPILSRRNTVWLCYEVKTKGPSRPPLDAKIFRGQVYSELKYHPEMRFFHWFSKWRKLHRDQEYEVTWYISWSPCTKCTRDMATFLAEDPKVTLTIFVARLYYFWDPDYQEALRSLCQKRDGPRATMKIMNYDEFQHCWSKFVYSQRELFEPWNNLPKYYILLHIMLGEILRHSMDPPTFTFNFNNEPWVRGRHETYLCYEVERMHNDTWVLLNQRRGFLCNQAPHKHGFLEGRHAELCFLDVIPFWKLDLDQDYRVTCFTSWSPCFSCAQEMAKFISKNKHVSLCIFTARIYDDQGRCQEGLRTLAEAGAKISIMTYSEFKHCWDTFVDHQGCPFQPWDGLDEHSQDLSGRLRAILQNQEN

| Substance | binding signal (% complex yield) (p = 0.12 vs specific (not significant)) | binding signal (% complex yield) |
| --- | --- | --- |
| 418 bp duplex with 69 nt nonspecific overhang | 72.8 |  |
| 418 bp duplex with 69 nt deaminase specific overhang |  | 79.7 |
